Key:
[1] = system: endogenous PTP1B in Cos1 cells; experiment: Colocalization of intrabody45 and PTP1B in Cos1 cells by immunofluorescence; format: cell-based; conditions: FIG. 14
Description: In order to verify the interaction between PTP1B-OX and scFv45 in mammalian cells, Applicant determined whether PTP and scFv45 colocalized after insulin stimulation, using immunofluorescence. Cos1 cells were grown on cover slips and transfected with scFv45 using Fugene6 as the transfection reagent according to manufacturer's instructions. The cells were serum starved 24 hours post transfection, for 16 hours at 37° C. and then stimulated with 25 nM insulin (in growth medium without serum) or left untreated. Following insulin treatment the cells were washed 2× with PBS and fixed with 5% formalin (in PBS) for 15 minutes at room temperature. The cells were washed with PBS three times at room temperature. The fixed cells were permeabilized with 0.5% Triton-X100 (in PBS) for 5 minutes at room temperature. Cells were rinsed with Wash Buffer [PBS, pH 7.4 with 0.1% BSA, 0.2% TritonX-100, 0.05% Tween-20 and 0.05% sodium azide] at room temperature. […] To quantify colocalization of PTP1B and intrabody45 from the merged images, 15 individual images were analyzed by Zeiss (LSM 710) Colocalization Viewer Software. The degree of colocalization of PTP1B and intrabody45 in each cell was expressed as colocalization coefficients that measure relative number of colocalizing pixels for the respective fluorophores for PTP1B and intrabody45, as compared to the total number of pixels. […]

[2] = system: phosphorylation of AKT activation loop at Threonine 308 (T308); experiment: AKT phosphorylation (T308) after insulin stimulation in cells overexpressing scFv45; format: cell-based; conditions: cells overexpressing scFv45, insulin stimulated for different time periods; FIG. 13
Description: Applicant assessed the role of PTP1B-OX specific intrabody on the downstream readout of insulin signaling by following the phosphorylation (activation) status of AKT.

B1: scFv45: conformation-sensor scFv binding PTP1B-OX, SEQ ID NO: 26 and 78; expressed as intrabody (protein)
scFv: MKKTAIAIAVALAGFATVAQAALTQPSSVSANPGGTVKITCSGSSSAYGYGWYQQKSPGSAPVTVIYNNNKRPSNIPSRFSGSKSGSTGTLTITGVQAEDEAVYFCGSEDSSTDAIFGAGTTLTVLGQSSRSSTVTLDESGGGLQAPGGALSLVCKASGFTFSSYDMGWIRQAPGKGLEYVAGITDNGRYASYGSAVDGRATISRDNGQSSVRLQLNNLRAEDTGTYYCARDDGSGWTGNSIDAWGHGTEVIVSSTSGQAGQHHHHHHGAYPYDVPDYAS
[1]; Cos1 cells without insulin stimulation
  colocalization between PTP1B and intrabody: not significant
[1]; Cos1 cells, stimulated with 25 nM insulin
  colocalization between PTP1B and intrabody: Strong colocalization
[2]
  AKT phosphorylation at residue Threonine 308 (T308): enhanced and sustained AKT phosphorylation

Reference: patent US9074002B2, “PTP1B inhibitors” (Cold Spring Harbor Laboratory, priority 2009, dated 2015)
